Bridges are numbered along the chain shown (N, C = ends). Where no end group is shown, it is not given here.
B1: mt-125 (peptide)
peptide: YSQGTFTSDYSIYMDEIHQKDFVNWLLAQ-NH2
modifications: lactam 16-20; N-terminus assumed
SMILES: CC[C@H](C)[C@H](NC(=O)[C@H](CO)NC(=O)[C@H](Cc1ccc(O)cc1)NC(=O)[C@H](CC(=O)O)NC(=O)[C@H](CO)NC(=O)[C@@H](NC(=O)[C@H](Cc1ccccc1)NC(=O)[C@@H](NC(=O)CNC(=O)[C@H](CCC(N)=O)NC(=O)[C@H](CO)NC(=O)[C@@H](N)Cc1ccc(O)cc1)[C@@H](C)O)[C@@H](C)O)C(=O)N[C@@H](Cc1ccc(O)cc1)C(=O)N[C@@H](CCSC)C(=O)N[C@@H](CC(=O)O)C(=O)N[C@H]1CCC(=O)NCCCC[C@@H](C(=O)N[C@@H](CC(=O)O)C(=O)N[C@@H](Cc2ccccc2)C(=O)N[C@H](C(=O)N[C@@H](CC(N)=O)C(=O)N[C@@H](Cc2c[nH]c3ccccc23)C(=O)N[C@@H](CC(C)C)C(=O)N[C@@H](CC(C)C)C(=O)N[C@@H](C)C(=O)N[C@@H](CCC(N)=O)C(N)=O)C(C)C)NC(=O)[C@H](CCC(N)=O)NC(=O)[C@H](Cc2c[nH]cn2)NC(=O)[C@H]([C@@H](C)CC)NC1=O
B2: mt-128 (peptide)
peptide: HSQGTFTSDYSKYLDEIHQKDFIAWLMNGGPSSGAPPPS-NH2
modifications: lactam 16-20; N-terminus assumed
SMILES: CC[C@H](C)[C@H](NC(=O)[C@H](Cc1ccccc1)NC(=O)[C@H](CC(=O)O)NC(=O)[C@@H]1CCCCNC(=O)CC[C@H](NC(=O)[C@H](CC(=O)O)NC(=O)[C@H](CC(C)C)NC(=O)[C@H](Cc2ccc(O)cc2)NC(=O)[C@H](CCCCN)NC(=O)[C@H](CO)NC(=O)[C@H](Cc2ccc(O)cc2)NC(=O)[C@H](CC(=O)O)NC(=O)[C@H](CO)NC(=O)[C@@H](NC(=O)[C@H](Cc2ccccc2)NC(=O)[C@@H](NC(=O)CNC(=O)[C@H](CCC(N)=O)NC(=O)[C@H](CO)NC(=O)[C@@H](N)Cc2c[nH]cn2)[C@@H](C)O)[C@@H](C)O)C(=O)N[C@@H]([C@@H](C)CC)C(=O)N[C@@H](Cc2c[nH]cn2)C(=O)N[C@@H](CCC(N)=O)C(=O)N1)C(=O)N[C@@H](C)C(=O)N[C@@H](Cc1c[nH]c2ccccc12)C(=O)N[C@@H](CC(C)C)C(=O)N[C@@H](CCSC)C(=O)N[C@@H](CC(N)=O)C(=O)NCC(=O)NCC(=O)N1CCC[C@H]1C(=O)N[C@@H](CO)C(=O)N[C@@H](CO)C(=O)NCC(=O)N[C@@H](C)C(=O)N1CCC[C@H]1C(=O)N1CCC[C@H]1C(=O)N1CCC[C@H]1C(=O)N[C@@H](CO)C(N)=O
B3: mt-116 (peptide)
peptide: YSQGTFTSDYSKYLDEIHQKDFVNWLLAGGPSSGAPPPS-NH2
B4: mt-111 (peptide)
peptide: HSQGTFTSDYSKYLDEIHQKDFVNWLLAQ-NH2
modifications: lactam 16-20; N-terminus assumed
SMILES: CC[C@H](C)[C@@H]1NC(=O)[C@@H](NC(=O)[C@H](CC(=O)O)NC(=O)[C@H](CC(C)C)NC(=O)[C@H](Cc2ccc(O)cc2)NC(=O)[C@H](CCCCN)NC(=O)[C@H](CO)NC(=O)[C@H](Cc2ccc(O)cc2)NC(=O)[C@H](CC(=O)O)NC(=O)[C@H](CO)NC(=O)[C@@H](NC(=O)[C@H](Cc2ccccc2)NC(=O)[C@@H](NC(=O)CNC(=O)[C@H](CCC(N)=O)NC(=O)[C@H](CO)NC(=O)[C@@H](N)Cc2c[nH]cn2)[C@@H](C)O)[C@@H](C)O)CCC(=O)NCCCC[C@@H](C(=O)N[C@@H](CC(=O)O)C(=O)N[C@@H](Cc2ccccc2)C(=O)N[C@H](C(=O)N[C@@H](CC(N)=O)C(=O)N[C@@H](Cc2c[nH]c3ccccc23)C(=O)N[C@@H](CC(C)C)C(=O)N[C@@H](CC(C)C)C(=O)N[C@@H](C)C(=O)N[C@@H](CCC(N)=O)C(N)=O)C(C)C)NC(=O)[C@H](CCC(N)=O)NC(=O)[C@H](Cc2c[nH]cn2)NC1=O
B5: mt-120 (peptide)
peptide: YSQGTFTSDYSKYLDEQAAKEFIAWLMNGGPSSGAPPPS-NH2
modifications: lactam 16-20; N-terminus assumed
SMILES: CC[C@H](C)[C@H](NC(=O)[C@H](Cc1ccccc1)NC(=O)[C@H](CCC(=O)O)NC(=O)[C@@H]1CCCCNC(=O)CC[C@H](NC(=O)[C@H](CC(=O)O)NC(=O)[C@H](CC(C)C)NC(=O)[C@H](Cc2ccc(O)cc2)NC(=O)[C@H](CCCCN)NC(=O)[C@H](CO)NC(=O)[C@H](Cc2ccc(O)cc2)NC(=O)[C@H](CC(=O)O)NC(=O)[C@H](CO)NC(=O)[C@@H](NC(=O)[C@H](Cc2ccccc2)NC(=O)[C@@H](NC(=O)CNC(=O)[C@H](CCC(N)=O)NC(=O)[C@H](CO)NC(=O)[C@@H](N)Cc2ccc(O)cc2)[C@@H](C)O)[C@@H](C)O)C(=O)N[C@@H](CCC(N)=O)C(=O)N[C@@H](C)C(=O)N[C@@H](C)C(=O)N1)C(=O)N[C@@H](C)C(=O)N[C@@H](Cc1c[nH]c2ccccc12)C(=O)N[C@@H](CC(C)C)C(=O)N[C@@H](CCSC)C(=O)N[C@@H](CC(N)=O)C(=O)NCC(=O)NCC(=O)N1CCC[C@H]1C(=O)N[C@@H](CO)C(=O)N[C@@H](CO)C(=O)NCC(=O)N[C@@H](C)C(=O)N1CCC[C@H]1C(=O)N1CCC[C@H]1C(=O)N1CCC[C@H]1C(=O)N[C@@H](CO)C(N)=O
B6: mt-115 (peptide)
peptide: HSQGTFTSDYSKYLDEIHQKDFVNWLLAGGPSSGAPPPS-NH2
modifications: lactam 16-20; N-terminus assumed
SMILES: CC[C@H](C)[C@@H]1NC(=O)[C@@H](NC(=O)[C@H](CC(=O)O)NC(=O)[C@H](CC(C)C)NC(=O)[C@H](Cc2ccc(O)cc2)NC(=O)[C@H](CCCCN)NC(=O)[C@H](CO)NC(=O)[C@H](Cc2ccc(O)cc2)NC(=O)[C@H](CC(=O)O)NC(=O)[C@H](CO)NC(=O)[C@@H](NC(=O)[C@H](Cc2ccccc2)NC(=O)[C@@H](NC(=O)CNC(=O)[C@H](CCC(N)=O)NC(=O)[C@H](CO)NC(=O)[C@@H](N)Cc2c[nH]cn2)[C@@H](C)O)[C@@H](C)O)CCC(=O)NCCCC[C@@H](C(=O)N[C@@H](CC(=O)O)C(=O)N[C@@H](Cc2ccccc2)C(=O)N[C@H](C(=O)N[C@@H](CC(N)=O)C(=O)N[C@@H](Cc2c[nH]c3ccccc23)C(=O)N[C@@H](CC(C)C)C(=O)N[C@@H](CC(C)C)C(=O)N[C@@H](C)C(=O)NCC(=O)NCC(=O)N2CCC[C@H]2C(=O)N[C@@H](CO)C(=O)N[C@@H](CO)C(=O)NCC(=O)N[C@@H](C)C(=O)N2CCC[C@H]2C(=O)N2CCC[C@H]2C(=O)N2CCC[C@H]2C(=O)N[C@@H](CO)C(N)=O)C(C)C)NC(=O)[C@H](CCC(N)=O)NC(=O)[C@H](Cc2c[nH]cn2)NC1=O
B7: mt-118 (peptide)
peptide: YSQGTFTSDYSKYLDEIHQKEFVNWLLAQ-NH2
B8: mt-124 (peptide)
peptide: HSQGTFTSDYSIYMDEIHQKDFVNWLLAQ-NH2
modifications: lactam 16-20; N-terminus assumed
SMILES: CC[C@H](C)[C@H](NC(=O)[C@H](CO)NC(=O)[C@H](Cc1ccc(O)cc1)NC(=O)[C@H](CC(=O)O)NC(=O)[C@H](CO)NC(=O)[C@@H](NC(=O)[C@H](Cc1ccccc1)NC(=O)[C@@H](NC(=O)CNC(=O)[C@H](CCC(N)=O)NC(=O)[C@H](CO)NC(=O)[C@@H](N)Cc1c[nH]cn1)[C@@H](C)O)[C@@H](C)O)C(=O)N[C@@H](Cc1ccc(O)cc1)C(=O)N[C@@H](CCSC)C(=O)N[C@@H](CC(=O)O)C(=O)N[C@H]1CCC(=O)NCCCC[C@@H](C(=O)N[C@@H](CC(=O)O)C(=O)N[C@@H](Cc2ccccc2)C(=O)N[C@H](C(=O)N[C@@H](CC(N)=O)C(=O)N[C@@H](Cc2c[nH]c3ccccc23)C(=O)N[C@@H](CC(C)C)C(=O)N[C@@H](CC(C)C)C(=O)N[C@@H](C)C(=O)N[C@@H](CCC(N)=O)C(N)=O)C(C)C)NC(=O)[C@H](CCC(N)=O)NC(=O)[C@H](Cc2c[nH]cn2)NC(=O)[C@H]([C@@H](C)CC)NC1=O

molecular target: glucagon receptor (UniProt P47871 26-477, limits assumed); assay: cell-based or functional assay
Sequence (P47871 26-477 limits assumed): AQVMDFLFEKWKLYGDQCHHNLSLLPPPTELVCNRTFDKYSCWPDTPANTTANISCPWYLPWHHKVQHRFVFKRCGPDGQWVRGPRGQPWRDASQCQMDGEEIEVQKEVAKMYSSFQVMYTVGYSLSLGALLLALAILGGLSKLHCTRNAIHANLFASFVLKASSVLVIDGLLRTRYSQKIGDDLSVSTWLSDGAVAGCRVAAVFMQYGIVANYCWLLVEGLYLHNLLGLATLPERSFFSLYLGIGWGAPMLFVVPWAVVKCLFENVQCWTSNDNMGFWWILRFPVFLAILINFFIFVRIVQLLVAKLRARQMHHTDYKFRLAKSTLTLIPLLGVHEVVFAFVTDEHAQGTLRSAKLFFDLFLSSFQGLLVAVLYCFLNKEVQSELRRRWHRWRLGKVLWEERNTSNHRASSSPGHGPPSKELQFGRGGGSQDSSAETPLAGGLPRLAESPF

| Binder | EC50 [nM] | relative activity [%] |
| --- | --- | --- |
| B1 | 5.74 | 9.06 |
| B2 | 0.773 | 11.1 |
| B3 | 0.787 | 18.7 |
| B4 | 0.27 | 85.2 |
| B5 | 0.074 | 259 |
| B6 | 0.44 | 11.4 |
| B7 | 0.04 | 125 |
| B8 | 2.43 | 8.64 |

molecular target: GLP-1 receptor (UniProt P43220 24-463, limits assumed); assay: cell-based or functional assay

| Binder | EC50 [nM] | relative activity [%] |
| --- | --- | --- |
| B1 | 1.26 | 3.17 |
| B2 | 0.12 | 33.3 |
| B3 | 3.8 | 1.07 |
| B4 | 0.66 | 10.6 |
| B5 | 0.399 | 13.4 |
| B6 | 0.15 | 20 |
| B7 | 1.28 | 2.34 |
| B8 | 0.04 | 100 |

molecular target: T1, GIP receptor (UniProt P48546 22-466); assay: cell-based or functional assay
T1 sequence (looked up): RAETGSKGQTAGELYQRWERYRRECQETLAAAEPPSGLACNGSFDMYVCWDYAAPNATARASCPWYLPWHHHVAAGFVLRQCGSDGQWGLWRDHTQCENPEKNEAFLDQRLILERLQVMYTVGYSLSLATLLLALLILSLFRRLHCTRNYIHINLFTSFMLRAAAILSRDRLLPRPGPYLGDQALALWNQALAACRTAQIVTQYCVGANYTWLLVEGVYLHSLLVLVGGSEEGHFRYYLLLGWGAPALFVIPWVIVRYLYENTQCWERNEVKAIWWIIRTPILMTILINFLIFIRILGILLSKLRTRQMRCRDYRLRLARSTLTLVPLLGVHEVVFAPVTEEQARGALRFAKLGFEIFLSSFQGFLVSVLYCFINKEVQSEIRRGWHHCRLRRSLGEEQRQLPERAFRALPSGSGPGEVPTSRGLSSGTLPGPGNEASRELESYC

| Binder | EC50 [nM] | relative activity [%] |
| --- | --- | --- |
| B1 | 0.275 | 19.6 |
| B2 | 14.6 | 0.42 |
| B3 | 0.617 | 7.62 |
| B4 | 6.26 | 0.78 |
| B5 | 2.62 | 1.81 |
| B6 | 3.58 | 1.31 |
| B7 | 0.736 | 6.39 |
| B8 | 5.79 | 0.95 |
